Measured values as given in the supplement of paper PMC9876800.

Tested on: peptide library, one residue held at a place counted from the S/T acceptor
Assay: relative phosphorylation of the sub-library (ratio to the mean residue at this position); higher = residue favoured
Conditions: human
Outline: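 In 384-well plates, purified recombinant kinases (human or orthologue constructs) were incubated for 90 min under kinase-specific conditions with 50 μM biotinylated degenerate peptide sub-libraries and 50 μM ATP spiked with γ-32P-ATP. Each sub-library fixed a single residue at one position around a central Ser/Thr. Relative sub-library phosphorylation, measured by phosphorimaging and densitometry of streptavidin membrane spots, is given as a ratio to the mean residue at that position.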

SNRK, construct: aa1-505, sequence (Q9NRH2 1-505, looked up): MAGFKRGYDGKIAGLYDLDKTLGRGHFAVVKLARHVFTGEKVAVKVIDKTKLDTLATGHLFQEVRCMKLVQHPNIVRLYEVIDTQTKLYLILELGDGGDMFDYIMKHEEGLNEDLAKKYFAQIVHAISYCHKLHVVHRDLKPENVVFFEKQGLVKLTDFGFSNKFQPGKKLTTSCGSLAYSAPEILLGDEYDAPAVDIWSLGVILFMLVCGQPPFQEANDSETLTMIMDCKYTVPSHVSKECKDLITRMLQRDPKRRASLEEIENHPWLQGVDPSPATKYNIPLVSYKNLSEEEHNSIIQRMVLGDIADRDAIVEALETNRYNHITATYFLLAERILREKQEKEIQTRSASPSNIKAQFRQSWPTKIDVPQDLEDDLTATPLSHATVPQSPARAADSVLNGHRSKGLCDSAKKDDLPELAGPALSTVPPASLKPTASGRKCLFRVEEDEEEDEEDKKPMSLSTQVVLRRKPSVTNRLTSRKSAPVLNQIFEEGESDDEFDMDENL
RIPK2, construct: aa2-317, sequence (O43353 2-317, looked up): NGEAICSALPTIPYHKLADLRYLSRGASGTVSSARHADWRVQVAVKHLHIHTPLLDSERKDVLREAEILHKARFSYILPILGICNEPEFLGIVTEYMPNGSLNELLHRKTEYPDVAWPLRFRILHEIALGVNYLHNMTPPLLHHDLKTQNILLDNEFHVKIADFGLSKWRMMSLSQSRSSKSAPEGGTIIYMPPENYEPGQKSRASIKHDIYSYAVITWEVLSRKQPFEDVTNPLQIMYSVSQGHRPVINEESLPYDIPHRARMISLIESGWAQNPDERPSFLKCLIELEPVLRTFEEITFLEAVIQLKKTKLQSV
PRKACG, construct: Full length, sequence (P22612 whole entry, looked up): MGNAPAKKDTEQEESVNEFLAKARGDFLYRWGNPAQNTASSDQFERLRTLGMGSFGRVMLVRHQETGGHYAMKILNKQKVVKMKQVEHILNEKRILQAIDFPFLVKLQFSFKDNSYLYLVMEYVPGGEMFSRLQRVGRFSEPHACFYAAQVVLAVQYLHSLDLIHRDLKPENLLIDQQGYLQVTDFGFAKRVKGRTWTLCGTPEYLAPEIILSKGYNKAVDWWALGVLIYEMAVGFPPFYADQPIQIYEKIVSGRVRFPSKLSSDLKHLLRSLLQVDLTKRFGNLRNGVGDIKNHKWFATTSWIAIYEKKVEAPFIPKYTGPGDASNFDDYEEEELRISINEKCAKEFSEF

PRKACG, construct: Full length (from UniProt P22612)
relative phosphorylation
Conditions	at +1	at +2	at +3	at +4	at -1	at -2	at -3	at -4	at -5
A fixed	0.696	1.22	0.896	0.974	0.795	0.472	0.682	0.944	1.09
D fixed	0.44	0.969	0.917	0.885	0.473	0.197	0.322	0.595	0.569
E fixed	0.469	0.676	0.951	0.985	0.452	0.215	0.344	0.665	0.577
F fixed	1.58	1.13	1.06	0.761	0.709	0.578	0.441	0.653	0.754
G fixed	0.804	1.08	1.26	1.17	1.21	0.565	0.846	1.09	1.09
H fixed	1.05	1.45	1.39	1.14	1.11	1.08	1.35	1.3	1.42
I fixed	1.57	0.902	0.819	1.16	0.343	0.227	0.289	0.564	0.63
K fixed	1.08	0.812	1.08	0.978	2.41	4.09	2.19	1.85	1.97
L fixed	1.32	0.961	0.87	0.866	0.746	0.324	0.297	0.582	0.627
M fixed	1.51	0.926	0.805	0.879	0.959	0.414	0.49	0.873	0.713
N fixed	0.851	0.942	0.921	1.04	1.15	0.689	0.776	1.01	0.965
P fixed	0.295	0.941	1.05	1.28	1.16	0.445	1.03	1.06	0.86
Q fixed	1.05	0.975	0.913	0.937	1.1	0.532	0.789	1.04	0.91
R fixed	1.18	0.87	1.11	0.886	1.97	6.02	5.51	2.44	2.36
V fixed	1.18	1.02	0.871	0.991	0.563	0.217	0.315	0.678	0.777
W fixed	0.963	0.99	1.04	1.1	0.768	0.462	0.615	0.821	0.856
Y fixed	0.969	1.14	1.05	0.979	1.09	0.478	0.716	0.847	0.824
pThr fixed	0.817	0.71	0.919	1.52	0.455	0.542	0.792	0.954	0.769
pTyr fixed	0.939	1.03	1.26	1.29	0.59	0.455	0.614	0.655	0.751

RAF1, construct: aa306-648 (from UniProt P04049)
relative phosphorylation
Conditions	at +1	at +2	at +3	at +4	at -1	at -2	at -3	at -4	at -5
A fixed	0.533	0.747	0.856	0.786	1.02	0.816	0.961	0.949	1.05
D fixed	0.619	0.926	0.751	0.848	1.47	0.702	0.845	1.36	1.19
E fixed	0.992	0.886	0.697	0.864	0.969	0.718	0.898	1.24	1.29
F fixed	1.25	0.618	1.36	1.23	0.587	1.25	0.8	0.698	0.914
G fixed	0.719	1.13	1.05	0.823	1.07	0.675	1.06	1.09	0.997
H fixed	0.672	1.08	1.06	1.13	1.52	1.29	1.08	1.13	1.18
I fixed	1.66	1.03	0.787	0.958	0.647	1.27	0.755	0.65	0.731
K fixed	0.544	1.15	0.73	0.985	1.14	0.9	1.36	1.11	1.35
L fixed	2.37	1	1.19	1.05	0.852	0.939	1.22	0.793	0.848
M fixed	1.78	0.846	0.963	0.966	1.09	1.02	1.07	0.835	0.788
N fixed	0.692	1.32	0.999	1.08	1.29	0.784	0.832	1.27	1.13
P fixed	0.281	1.23	0.912	0.983	0.735	1.1	0.797	0.772	1.03
Q fixed	0.762	1.22	0.892	1.06	0.93	0.846	0.996	0.878	0.86
R fixed	0.667	1.49	0.776	0.944	1.39	1.37	1.83	0.911	1.09
V fixed	0.938	1.12	0.81	0.793	0.59	1.14	0.661	0.616	0.681
W fixed	1.44	0.58	1.61	1.3	0.805	0.932	0.94	1.91	1.02
Y fixed	1.08	0.631	1.56	1.19	0.891	1.26	0.89	0.791	0.855
pThr fixed	1.05	1.62	0.758	0.819	0.77	1.06	1.1	1.24	0.992
pTyr fixed	0.626	0.898	0.911	0.692	1.61	1.72	1.07	0.994	0.98

RIPK2, construct: aa2-317 (from UniProt O43353)
relative phosphorylation
Conditions	at +1	at +2	at +3	at +4	at -1	at -2	at -3	at -4	at -5
A fixed	0.347	0.349	0.463	0.669	0.597	0.592	0.889	0.727	1.01
D fixed	0.267	0.348	0.308	0.731	1.09	0.599	0.412	0.738	0.674
E fixed	0.265	0.481	0.291	0.563	0.726	0.431	0.409	0.655	0.669
F fixed	2.32	1.73	3.03	1.2	1.31	1.12	1.17	1.15	1.44
G fixed	0.316	0.414	0.503	0.789	0.615	0.882	0.712	0.728	0.893
H fixed	0.643	1.41	0.734	1.11	1.29	1.54	0.905	1.02	0.985
I fixed	2.75	1.96	1.31	0.975	1.11	0.86	1.27	1.12	1.13
K fixed	0.367	1.29	0.628	1.18	0.766	0.734	0.983	0.739	0.874
L fixed	1.41	1.17	1.12	0.98	1.53	1.15	1.6	1.1	1.15
M fixed	1.4	1.12	1.41	0.967	1.74	1.18	1.2	1.23	1.17
N fixed	0.369	0.622	0.498	0.86	0.932	0.869	0.626	0.949	0.73
P fixed	0.166	0.299	0.277	0.879	0.394	0.365	0.537	0.624	0.781
Q fixed	0.496	0.788	0.425	0.847	0.784	0.82	0.631	0.679	0.727
R fixed	0.395	1.22	0.962	1.43	0.8	1.72	2.02	0.923	1.01
V fixed	1.58	1.14	0.845	0.638	0.75	0.64	0.797	1.02	0.917
W fixed	2.7	1.01	2.38	1.83	1.32	2.07	1.78	2.25	1.42
Y fixed	1.22	1.65	1.81	1.34	1.24	1.42	1.05	1.35	1.42
pThr fixed	0.578	0.83	0.416	0.82	0.77	0.688	0.707	1	0.808
pTyr fixed	0.309	0.39	0.353	0.5	1.35	0.425	0.568	0.617	0.54

SNRK, construct: aa1-505 (from UniProt Q9NRH2)
relative phosphorylation
Conditions	at +1	at +2	at +3	at +4	at -1	at -2	at -3	at -4	at -5
A fixed	0.817	0.313	0.573	0.725	0.876	1.27	0.886	1.12	1.07
D fixed	0.421	0.215	0.614	0.532	0.73	0.301	0.279	0.572	0.568
E fixed	0.544	0.156	0.303	0.474	0.899	0.344	0.267	0.65	0.514
F fixed	1.81	3.56	2.34	1.08	0.944	1.31	0.898	0.944	1.27
G fixed	0.424	0.196	0.608	0.721	0.813	0.721	0.617	1.06	0.957
H fixed	0.863	0.998	1.16	0.969	1.1	1.47	1.04	1.15	1.1
I fixed	0.829	0.912	0.61	1.16	0.811	0.587	0.631	0.861	0.921
K fixed	1.09	0.431	0.691	1	1.06	1.12	1.99	1.42	1.31
L fixed	1.05	1.36	0.88	1.78	1.3	0.616	0.9	0.94	0.815
M fixed	1.4	1.34	0.934	1.18	1.31	0.91	0.979	1.03	0.937
N fixed	0.916	0.5	1.11	0.965	0.864	1.11	0.654	0.824	0.883
P fixed	0.171	0.276	0.354	1.02	0.823	0.426	0.613	0.748	0.807
Q fixed	1.35	0.567	0.661	1.16	1.08	1.14	0.908	0.942	0.89
R fixed	1.63	0.865	1.1	1.06	1.45	2.44	4.04	1.5	1.69
V fixed	0.936	0.585	0.531	0.924	0.93	0.78	0.498	0.911	0.996
W fixed	1.27	2.4	2.19	1.29	0.964	1.11	0.952	1.18	1.23
Y fixed	1.48	2.32	2.35	0.952	1.05	1.34	0.85	1.15	1.05
pThr fixed	0.702	0.42	0.371	0.477	0.913	0.613	0.526	0.7	0.726
pTyr fixed	0.777	0.522	0.548	0.425	1.03	0.512	0.522	0.735	0.73
